Data on 1 protein can be found in publication doi:10.1101/2020.10.26.352583 (bioRxiv, 2020).

This data set deals with the molecule itself. In words: ITC. For orientation: In ITC the heat of successive injections is recorded.

B1: HDP1 DNA-binding domain (HDP1-DBD), aa2991-3078 (domain or fragment, P. falciparum, UniProt A0A2I0C2C6 2991-3078, looked up)
chain: SEVQVSNINTPSSYNISARRRRRIGNNGPPSAEELNRLLNIQHLTIPEIATIYGVHRTTIARWCNIRNITSNSMNNSPGKRRKNEDNK
As for B1, the binding result is listed as “binds”.
